Results reported in article PMC4220463, “Direct interaction of Plk4 with STIL ensures formation of a single procentriole per parental centriole” (Nature Communications, 2014).

Biological target: T1, MBP-5Myc-HsSAS-6 full length (human, UniProt Q6UVJ0 1-657)
T1 construct: HsSAS-6 full length, cloned into a modified pENTR-1A-5Myc-MBP vector; also called MBP-HsSAS-6; source: Sf9 (baculovirus), purified (amylose resin); not shown: MBP, N-terminal, kept; 5Myc, N-terminal, kept
T1 sequence (looked up): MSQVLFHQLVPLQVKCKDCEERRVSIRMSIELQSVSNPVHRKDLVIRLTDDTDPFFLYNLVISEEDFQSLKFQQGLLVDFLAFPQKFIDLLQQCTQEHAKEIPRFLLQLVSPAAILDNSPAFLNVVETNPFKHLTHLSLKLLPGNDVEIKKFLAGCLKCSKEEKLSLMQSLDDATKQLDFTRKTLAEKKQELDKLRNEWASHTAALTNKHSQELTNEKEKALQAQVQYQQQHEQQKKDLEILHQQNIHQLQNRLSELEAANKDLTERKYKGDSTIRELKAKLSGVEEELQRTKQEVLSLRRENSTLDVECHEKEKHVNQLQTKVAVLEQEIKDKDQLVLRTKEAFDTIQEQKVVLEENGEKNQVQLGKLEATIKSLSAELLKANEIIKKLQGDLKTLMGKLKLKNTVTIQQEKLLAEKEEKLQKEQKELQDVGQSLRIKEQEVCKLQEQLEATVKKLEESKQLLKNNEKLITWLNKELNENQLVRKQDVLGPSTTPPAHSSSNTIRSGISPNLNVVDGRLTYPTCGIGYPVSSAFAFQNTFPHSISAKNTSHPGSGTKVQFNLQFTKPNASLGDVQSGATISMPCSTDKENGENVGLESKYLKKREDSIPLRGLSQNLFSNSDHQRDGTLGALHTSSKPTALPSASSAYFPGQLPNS
Test: pull-down; bacterially purified STIL fragments after an in vitro kinase reaction with Plk4ΔPEST-FLAG on anti-FLAG beads (supernatant; for N3C also the FLAG-peptide eluate) incubated with MBP-HsSAS-6 full length and pulled down with amylose resin; western blot
Details: both partners purified

binding result: binds
B1: STIL C fragment (a.a. 1,018–1,287) phosphorylated by Plk4ΔPEST-FLAG (domain or fragment, human, UniProt Q15468 1018-1287, looked up)
chain: NAHNVDHASVLACISPEAVISGLNCMSFANVGMSGLSPNGVDLSMEANAIALKYLNENQLSQLSVTRSNQNNCDPFSLLHINTDRSTVGLSLISPNNMSFATKKYMKRYGLLQSSDNSEDEEEPPDNADSKSEYLLNQNLRSIPEQLGGQKEPSKNDHEIINCSNCESVGTNADTPVLRNITNEVLQTKAKQQLTEKPAFLVKNLKPSPAVNLRTGKAEFTQHPEKENEGDITIFPESLQPSETLKQMNSMNSVGTFLDVKRLRQLPKLF
modifications: phosphorylated in vitro by Plk4ΔPEST-FLAG: S1061, S1116, S1181, T1238, T1250
notes: human STIL C fragment, a.a; 1,018–1,287; also called GST-HA-STIL C; C-terminal fragment of STIL; source: E. coli BL21 gold (DE3), purified (glutathione sepharose), then phosphorylated in vitro by Plk4ΔPEST-FLAG; not shown: HA, N-terminal, kept
